# Residue numbers refer to the chain shown, from its start.
# B1: clone 4278 (antibody, V domains shown)
# VH: EVQLVESGGGLVKPGGSLRLSCAASGFTFSKYAMNWFRQAPGKGLEWVSTITLGGSYTYYADSVDGRFTISRDNAKNSLYLQMNSLRAEDTAVYYCARQYLDGNFLMDYWGQGTLVTVSS
# VL: DVVMTQTPLSLPVTLGQPASISCKSSQSLLDIDGKTYLNWLQQRPGQSPKRLIYLVSKLDSGVPDRFTGSGSGTDFTLKISRVEAEDVGVYYCWQGTHFPFTFGQGTKVEIKR
# notes: scFv on yeast at selection; human IgG4/kappa IgG as purified
# B2: clone 15 (antibody, V domains shown)
# VH: B1 VH with L53T, D65E, Y100H, L101P, D102Y
# VL: B1 VL with Q27P, I32S, T97F, H98Y
# notes: human IgG4/kappa IgG as purified
# B3: clone 14 (antibody, V domains shown)
# VH: B1 VH
# VL: B1 VL with Q27P, I32S, H98Y
# notes: as for B2
# B4: clone 308-2 (antibody, V domains shown)
# VH: EVQLVESGGGLVKPGGSLRLSCAASGFTFSSYAMNWVRQAPGKGLEWVSTITTGGSYTYYADSVQGRFTISRDNAKNSLYLQMNSLRAEDTAVYYCARQDGNFLMDYWGQGTLVTVSS
# VL: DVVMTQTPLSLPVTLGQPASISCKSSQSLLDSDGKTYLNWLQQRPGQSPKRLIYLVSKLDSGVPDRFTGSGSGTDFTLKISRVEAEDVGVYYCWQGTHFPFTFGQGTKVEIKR
# B5: clone 1208 (antibody, V domains shown)
# VH: B4 VH with Y57H, Q65E, N102H
# VL: B1 VL with I32V, H98Y, F99L
# notes: as for B1
# B6: clone 1243 (antibody, V domains shown)
# VH: B4 VH with Y57H, Q65H, N102H
# VL: B1 VL
# notes: as for B1
# B7: clone 4011 (antibody, V domains shown)
# VH: B4 VH with S30Y, Y57H, Q65E
# VL: B1 VL with I32V, F99L
# notes: as for B1
# Tests used:
# [1] = biological target: T1, recombinant human TFPI (tissue factor pathway inhibitor) (human, UniProt P10646 29-304); test: yeast-display scFv, FACS with biotinylated TFPI
# T1 construct: Biotin-conjugated in the yeast FACS; also called hTFPI; TFPI antigen
# Procedure: The finally amplified single colonies were collected from the yeast display library, and then cultured in SD medium at 30° C. at 200 rpm for 12 hours. Then, the medium was replaced with SG medium, and the cells were cultured at 25° C. at 200 rpm for 12 hours or more, thereby expressing the antibody on the yeast surface. Next, the yeast cells recovered by centrifugation were washed with PBSF (1% BSA containing PBS) buffer, resuspended in 50 μl of PBSF buffer, and then incubated with a biotin-conjugated recombinant human TFPI protein and anti-c-myc mouse antibody (CAT. No. M4439, Sigma) at room temperature for 30 minutes. The incubated yeast cells were washed with PBSF, resuspended in 50 μl of PBSF buffer, and then incubated with FITC-conjugated anti-mouse antibody (CAT. No. F0257, Sigma) and PE-conjugated streptavidin on ice under a light-shielded condition for 15 minutes. Next, the cells were washed with PBSF buffer, resuspended in 500 μl of PBSF buffer, and then clones showing high values in the FITC and PE wavelength ranges were selected by FACS, thereby obtaining individual clones.
# [2] = biological target: T1, recombinant human TFPI (tissue factor …); test: cell-based or functional assay
# [3] = biological target: T1, recombinant human TFPI (tissue factor …); test: cell-based or functional assay; remark: listed apart in the source
# [4] = biological target: T1, recombinant human TFPI (tissue factor …); test: cell-based or functional assay; remark: listed apart in the source
# [5] = biological target: T1, recombinant human TFPI (tissue factor …); test: SPR, Biacore T-200; TFPI immobilised on CM5 chip, IgG as analyte
# Procedure: 10 mM of glycine-HCl (pH 1.5) was run at a flow rate of 30 μL/min for 30 seconds, thereby inducing the dissociation of the antibody associated with the TFPI. The affinity in terms of kinetic rate constants (Kₒₙ and Koff) and equilibrium dissociation constant
binder,measurement,setting,value
B1,binding result,[1],binds
B2,binding result,[1],binds
B3,binding result,[1],binds
B4,"TFPI inhibitory activity, FXa activity assay, Ab 10 nM",[2],72%
same,"TFPI inhibitory activity, FXa activity assay, Ab 40 nM",[2],85%
same,"TFPI inhibitory activity, TF/FVIIa/FXa complex assay, Ab 50 nM",[2],100%
same,"TFPI inhibitory activity, TF/FVIIa/FXa complex assay, Ab 100 nM",[2],100%
same,"TF/FVIIa/FXa assay % of 0 nM TFPI, 12.5 nM Ab, 50 nM TFPI",[3],18.5%
same,"TF/FVIIa/FXa assay % of 0 nM TFPI, 50 nM Ab, 50 nM TFPI",[3],102%
same,"TF/FVIIa/FXa assay % of 0 nM TFPI, 100 nM Ab, 50 nM TFPI",[3],110%
same,"TF/FVIIa/FXa assay OD, 12.5 nM Ab, 50 nM TFPI",[3],0.148 OD
same,"TF/FVIIa/FXa assay OD, 25 nM Ab, 50 nM TFPI",[3],0.303 OD
same,"TF/FVIIa/FXa assay OD, 50 nM Ab, 50 nM TFPI",[3],0.816 OD
same,"TF/FVIIa/FXa assay OD, 100 nM Ab, 50 nM TFPI",[3],0.88 OD
same,"FXa assay % of FXa alone, 0.625 nM Ab, 10 nM TFPI",[4],5%
same,"FXa assay % of FXa alone, 2.5 nM Ab, 10 nM TFPI",[4],8%
same,"FXa assay OD, 0.625 nM Ab, 10 nM TFPI",[4],0.053 OD
same,"FXa assay OD, 2.5 nM Ab, 10 nM TFPI",[4],0.078 OD
same,"FXa assay OD, 10 nM Ab, 10 nM TFPI",[4],0.71 OD
same,"FXa assay OD, 40 nM Ab, 10 nM TFPI",[4],0.832 OD
same,Kd,[5],33 pM
B5,binding result,[1],binds
B6,binding result,[1],binds
B7,binding result,[1],binds

# Reference: patent US20180030151A1 (MOGAM INSTITUTE FOR BIOMEDICAL RESEARCH, published 2018)
